US8828941 (KUNOVUS, dated 2014)

Target: the molecule itself
Assay: non-reducing PAGE of protein from CHO cells
From the text: Concentrated supernatants from one well of a 6-well plate were separated using polyaclylamide gel electrophoresis (PAGE) under […] conditions. Proteins were transferred to nitrocellulose membranes and detected with antisera specific for GDF-6 or for the FLAG tag, secondary antibodies and detection system.

B1: active domain of GDF-6 fused to a FLAG tag (SEQ ID NO: 25), expressed in CHO cells (ligand)
chain: MDYKDDDDKENLYFQGTAFASRHGKRHGKKSRLRCSKKPLHVNFKELGWDDWIIAPLEYEAYHCEGVCDFPLRSHLEPTNHAIIQTLMNSMDPGSTPPSCCVPTKLTPISILYIDAGNNVVYKQYEDMVVESCGCR
notes: Non-reducing PAGE indicates a homodimer; also called active fragment of GDF-6; active fragment
binding result: binds
